Laboratory results taken from patent US20230322908A1 (AC IMMUNE, published 2023).

Tests used:
[1] = molecular target: T1, recombinant human aggregated full-length TDP-43 (human, UniProt Q13148 1-414); assay: SPR, immobilized aggregated TDP-43
T1 construct: also called aggregated TDP-43; aggregated FL TDP-43
Description: (§1) Binding avidity to soluble or aggregated FL TDP-43 was evaluated by determing the dissociation constants (KD) using surface plasmon resonance (SPR; Biacore T200, GE Healthcare Life Sciences). Recombinant human soluble or aggregated FL TDP-43 were immobilized on a CM5 Series S sensor chip (GE Healthcare Life Sciences) by amine coupling. Soluble TDP-43 was immobilized at a concentration of 5 µg/ml in 10 mM sodium acetate (pH 4.5) with a flow rate of 5 µl/min for 420 seconds resulting in an immobilization level of 150 RU. Aggregated TDP-43 was immobilized at a concentration of 50 µg/ml in 10 mM sodium acetate (pH 4.5) with a flow rate of 5 µl/min for 840 seconds resulting in an immobilization level of 110 RU. Biotinylated TP-73 peptide (aa 181-190 of SEQ ID NO:1) was immobilized on a Series S Sensor Chip SA (GE Healthcare Life Sciences) at a concentration of 5 µg/ml in PBS-P⁺ with a flow rate of 5 µl/min for 30 seconds resulting in an immobilization level of 400 RU. […] The antibodies were injected at a flow rate of 50 µl/min for 90 seconds contact time and 700 seconds dissociation phase followed by three regenerations with 10 mM glycine-HCl pH 1.7. For the optimized SPR protocol the antibodies were diluted 3-fold starting from 300 nM and dilute down to 1.2 nM and injected for 300 seconds at 30 µl/min followed by 600 seconds dissociation. The surface was regenerated by one injection with 10 mM glycine-HCl pH 1.7. Results obtained from binding kinetics were double-referenced using a blank flow cell and a buffer cycle and were evaluated with a global 1:1 fitting model with RI. Avidities for 11 antibodies and two Fab fragments are depicted in Table 8. […] In addition, some antibodies show preferential binding to aggregated TDP-43 as compared with soluble TDP-43.

[2] = molecular target: T2, recombinant human full-length TDP-43 (TAR DNA-binding protein 43), soluble (human, UniProt Q13148 1-414); assay: SPR, immobilized soluble TDP-43
T2 construct: Used on Luminex beads, coated on ELISA plates, and immobilized or injected in SPR; also called FL TDP-43; TDP-43 protein
Description: as §1

[3] = molecular target: T2, recombinant human full-length TDP-43 …; assay: Luminex, FL TDP-43 on beads
Description: Mice were euthanized and fusion with myeloma cells was performed using splenocytes from four individual mice. Screening for antibodies from the successfully fused hybridoma cell lines were performed as follows. Diluted (1:32) cell culture supernatants were analyzed using Luminex bead-based multiplex assay (Luminex, The Netherlands). Luminex beads were conjugated to FL TDP-43 and with capturing IgGs with anti-mouse IgG-Fc antibodies specific for the IgG1, IgG2a, IgG2b, IgG2c, and IgG3 subclasses (Jackson Immunoresearch, USA). Binding to beads conjugated to FL TDP-43 identified 386 hits derived from mice immunized with the FL TDP-43 liposomal vaccine.
Luminex assays with serial dilution of antibodies were performed as described before to determine half maximal effective concentration (EC50) of binding of antibodies to FL TDP-43. In summary, all tested antibodies bind to full length TDP-43 with high affinity.

[4] = molecular target: T2, recombinant human full-length TDP-43 …; assay: indirect ELISA, coated FL TDP-43
Description: Antibody binding to human FL TDP-43 was determined using an indirect ELISA. ELISA plate coating with 1 µg/ml human FL TDP-43 was performed overnight in carbonate buffer at 4° C. Plates were washed with 0.05% Tween-20/PBS and then blocked with 1% bovine serum albumin (BSA) in 0.05% Tween-20/PBS for 1 hour at 37° C. Antibodies purified from hybridoma supernatants were then added in a 3-fold serial dilution starting at 1 µg/ml, and incubated for 2 hours at 37° C. after which the plates were washed. An AP-conjugated anti-mouse IgG secondary antibody (Jackson Immunoresearch Laboratories, United Kingdom) was added at 1/1000 dilution in 0.05% Tween-20/PBS for 1 hour at 37° C. After the final wash, plates were incubated with pNPP (Sigma-Aldrich, Switzerland) phosphatase substrate solution, and read at 405 nm using an ELISA plate reader (Tecan, Switzerland).

[5] = molecular target: T2, recombinant human full-length TDP-43 …; assay: SPR optimized protocol, immobilized soluble TDP-43
[6] = molecular target: T1, recombinant human aggregated …; assay: SPR optimized protocol, immobilized aggregated TDP-43
[7] = molecular target: T2, recombinant human full-length TDP-43 …; assay: SPR, immobilized soluble TDP-43; Fab fragment, not whole antibody; soluble TDP-43 on the chip
[8] = molecular target: T2, recombinant human full-length TDP-43 …; assay: SPR, mAb captured, FL TDP-43 injected; mean
Description: Binding affinity to soluble FL TDP-43 was evaluated by determing the dissociation constants (KD) using surface plasmon resonance (SPR; Biacore T200, GE Healthcare Life Sciences). Goat-anti mouse capture antibody was immobilized on a CM5 Series S sensor chip (GE Healthcare Life Sciences) by amine coupling. Antibodies were captured at a concentration of 2-5 µg/ml in PBS-P⁺ (GE Healthcare Life Sciences) with a flow rate of 10 µl/min for 120 seconds resulting in a capture level of 350-1000 RU. […] Dissociation was recorded for 1 h followed by one regeneration with 10 mM glycine-HCl pH 1.7. Results obtained from binding kinetics were double-referenced using a blank flow cell and a buffer cycle and were evaluated with a global 1:1 fitting model with RI.

T1 sequence (Q13148 whole entry): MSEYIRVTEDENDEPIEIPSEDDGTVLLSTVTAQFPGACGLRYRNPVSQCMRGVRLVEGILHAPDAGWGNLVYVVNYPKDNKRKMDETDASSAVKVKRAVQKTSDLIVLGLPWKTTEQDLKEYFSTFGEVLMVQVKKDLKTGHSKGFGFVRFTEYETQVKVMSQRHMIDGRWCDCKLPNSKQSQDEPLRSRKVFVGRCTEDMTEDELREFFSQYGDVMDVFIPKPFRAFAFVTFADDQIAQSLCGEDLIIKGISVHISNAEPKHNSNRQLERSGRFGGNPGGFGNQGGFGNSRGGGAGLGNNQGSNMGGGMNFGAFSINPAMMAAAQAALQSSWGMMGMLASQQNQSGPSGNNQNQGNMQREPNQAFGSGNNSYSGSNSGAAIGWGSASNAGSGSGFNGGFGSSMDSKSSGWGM
T2 sequence (Q13148 whole entry): as above

Kd [1] [nM] | koff [1] [s⁻¹] | kon [1] [M⁻¹ s⁻¹] | Kd [2] [nM] | koff [2] [s⁻¹] | kon [2] [M⁻¹ s⁻¹] | EC50 [3] [nM] | EC50 [4] [µg/mL] | Kd [5] [nM] | koff [5] [s⁻¹] | kon [5] [M⁻¹ s⁻¹] | Kd [6] [nM] | koff [6] [s⁻¹] | kon [6] [M⁻¹ s⁻¹] | Kd [7] [nM] | Kd [8] [nM] | koff [8] [s⁻¹] | kon [8] [M⁻¹ s⁻¹] | Binder
2.25 | 0.000216 | 95900 | 10.6 | 0.000821 | 77100 | < 0.01 | 0.017 |  |  |  |  |  |  |  |  |  |  | ACI-7071-809D9-Ab2 (antibody, mouse IgG2b, V domains shown, Mouse IgG2b, kappa, from hybridoma; also called 809D9C2) VH: QVQLQQSGAELVRPGVSVKISCKGSGYKFTDYSMHWVKQSHTKSLEWIGVISTYYGDTTYNQKFKGKATITVDKSSSTAYMELARLTSEDSAIYYCATYGNFPASFSYWGQGTLVTVSA VL: DIVMTQAAPSIPVTPGESVSISCRSSKSLLHSNGNTYLYWFLQRPGQSPQLLIYRMSNLASGVPDRFSGSGSGTAFTLRISRVEAEDVGVYYCMQHLEYPFTFGSGTKLEIK
0.82 | 7.1e-05 | 86100 | 486 | 0.000774 | 1590 | < 0.01 | 0.053 |  |  |  |  |  |  |  |  |  |  | ACI-7069-631B2-Ab1 (antibody, mouse IgG1, V domains shown, Mouse IgG1, kappa, from hybridoma; also called 631B2A2) VH: EVQLQQSGPELVKPGASVKISCKTSGYTFTEYSIHWVKQSHGESLEWIGGINPDNGGTRYNQKFKGKATLTVDKSSSTAYMDLRSLTSEDSAVYYCARESWGQGTTLTVSS VL: not shown
 |  |  |  |  |  |  |  | 0.22 | 1.08e-05 | 61800 | 0.18 | 1.32e-05 | 84000 |  |  |  |  | ACI-7069-633B12-Ab1 (IgG2a variant) (antibody, V domains shown, Recombinantly produced mouse IgG2a isotype; also called 633B12C8*; ACI-7069-633B12-Ab1 (IgG2a isotype)) VH: EVQLQQSGPELVKPGASVKISCKTSGFTFTEYSMHWVKQSHGKSLEWIGGINPNNGGTSYNQKFKGKATLTVDKSSSTAYMELRSLTSEDSAVYYCARESWGQGTTLTVSS VL: not shown
6.9 | 0.000215 | 32200 |  | 0.000146 | 55100 |  |  |  |  |  |  |  |  | 2.8 |  |  |  | 633B12C8 Fab (Fab, V domains shown, Fab fragment; also called Fab fragment of ACI-7069-633B12-Ab1) VH: EVQLQQSGPELVKPGASVKISCKTSGFTFTEYSMHWVKQSHGKSLEWIGGINPNNGGTSYNQKFKGKATLTVDKSSSTAYMELRSLTSEDSAVYYCARESWGQGTTLTVSS VL: not shown
0.81 | 7.63e-05 | 94700 | 1.68 | 0.000167 | 99400 | < 0.01 | 0.014 |  |  |  |  |  |  |  | 0.423 | 1.36e-05 | 32000 | ACI-7071-809F12-Ab1 (antibody, mouse IgG2b, V domains shown, Mouse IgG2b, kappa, from hybridoma; also called 809F12D8) VH: QVQLKESGPGLVAPSQSLSITCTVSGFSLNRNGVQWVRQPPGKGLEWLGVIWPGGSTNCNSALMSRLSISKDNSKSQVFLKMNSLHTDDTGIYYCARVGGNYVWDYNNYAWGQGTLVTVSA VL: DVLMTQTPLSLPVSLGDQASISCRSSQNIVHSIGNTYLEWYLQKPGQSPKLLIYKVSNRFSGVPDRFSGSGSGTDFTLKISRVEAEDLGVYYCFQGSHVPYTFGGGTKLEIR
1.6 | 0.000193 | 121000 | 6.76 | 0.000841 | 125000 | < 0.01 | 0.016 |  |  |  |  |  |  |  |  |  |  | ACI-7069-641H1-Ab2 (antibody, mouse IgG2b, V domains shown, Mouse IgG2b, kappa, from hybridoma; also called 641H1E7) VH: QVQLKESGPGLVAPSQSLSITCTVSGFSLTNYGVHWVRQPPGKGLEWLGLMWAGGSTNYNSALMSRLSISKDNSKSQVFLKMNSLQTDDTAMYYCVIYRTGFAYWGQGTLVTVSA VL: DVLMTQTPLSLPVSLGDQASISCRSSQSIVHTIGNTYLEWYLQKPGQSPKLLIYKVSNRFSGVPDRFSGSGSGTDFTLKISRVEAEDLGVYYCFQGSHVPFTFGSGTKLEIK
1.28 | 0.000184 | 144000 | 3.66 | 0.00065 | 178000 | < 0.01 | 0.011 |  |  |  |  |  |  |  |  |  |  | ACI-7069-646B7-Ab1 (antibody, mouse IgG2b, V domains shown, Mouse IgG2b, kappa, from hybridoma; also called 646B7F7) VH: QVQLKESGPGLVAPSQSLSITCTVSGFSLTNFGVHWVRQPPGKGLEWLGIMWAGGSTNYNSALMSRLSISKDNSKSQVFLKMNSLQTDDTAMYYCVIYKTGFAYWGQGTLVTVSA VL: DVLMTQTPLSLPVSLGDQASISCRSSQSIVHAIGNTYLEWYLQKPGQSPKLLIYKVSNRFSGVPDRFSGSGSGTDFTLKISRVEAEDLGVYYCFQGSHVPFTFGSGTKLEIK
1.51 | 0.000166 | 110000 | 19.7 | 0.000874 | 44300 | < 0.01 | 0.053 |  |  |  |  |  |  |  |  |  |  | ACI-7069-634H10-Ab2 (antibody, mouse IgG2b, V domains shown, Mouse IgG2b, kappa, from hybridoma; also called 634H10H7) VH: EVQLQQSGAELVKPGASVRLSCTASGFNIKDTYMHWVKQRPEQGLEWIGRIDPANSNTKFDPKFQGKATITSDTSSNTAYLQLSSLTSEDTAVYYCARFYGGSHWYFDVWGAGTTVTVSS VL: DIKMTQSPSSMYASLGERVTITCKASQDIKSYLSWYQHKPWKSPKALIYYATSLADGVPSRFSGSGSGQDYSLTISSLESDDTATYYCLQQGESPYTFGGGTKLEIK
 |  |  |  |  |  |  |  | 3.9 | 0.00045 | 115000 | 0.69 | 9.87e-05 | 149000 |  |  |  |  | ACI-7069-642D12-Ab1 (IgG2a variant) (antibody, V domains shown, Recombinantly produced mouse IgG2a isotype; also called 642D12B4 *; ACI-7069-642D12-Ab1 (IgG2a isotype)) VH: EVQLQQSGAELVKPGASVRLSCTASGFNIKDPYMHWVRQRPKQGLEWIGRIDPADGNTKYDPKFQGKATLTADTSSNVAYLHLSSLTSEDTAVYYCARFYGSSHWYFDVWGAGTTVTVSS VL: DIKMTQSPSSMYASLGERVTITCKASQDIKRYLSWYQQKPWKSPKILIYYATSLADGVPSRFSGTGSGQDYSLTISSLESDDVATYYCLQQGESPYTFGGGTKLEIK
2.43 | 0.000274 | 113000 | 43.8 | 0.000682 | 15600 | < 0.01 | 0.015 |  |  |  |  |  |  |  |  |  |  | ACI-7069-636E5-Ab1 (antibody, mouse IgG2b, V domains shown, Mouse IgG2b, lambda, from hybridoma; also called 636E5B8) VH: EVHLVESGGDLVMPGGSLKLSCAASGFTFSNYGMSWVRQTPDKRLEWVATISSGGKYINYLDSLKGRFTISRDNAKNTLYLQMSSLKSEDTAMYYCAKDYGSGWAWFAYWGQGTLVTVSA VL: QLVLTQSSSASFSLGASAKLTCTLSSQHSTYTIEWYQQQPLKPPKYVMELKKDGSHSTGDGIPDRFSGSSSGADRYLSISNIQPEDEAIYICGVGDTIKEQFVYVFGGGTKVTVL
0.68 | 2.36e-05 | 34800 | 406 | 0.000545 | 1340 | 0.18 | 0.102 |  |  |  |  |  |  |  |  |  |  | ACI-7071-712A6-Ab1 (antibody, mouse IgG2c, V domains shown, Mouse IgG2c; also called 712A6B10) VH: QVQLQQSGAELVKPGTSVKLSCKASAYTFTEYTIHWIKQKSGQGLEWIGWFHPENDNIKYNENFKDKATLTADRSSSTVYMELSRLTSEDSAVYFCAGTSGYGDYWGQGTTLTVSS VL: not shown
